Laboratory results reported in paper PMC9218434.

Target: nucleosome core particle (NCP) of human histones H2A, H2B, H3.1 and H4 with the 145 base-pair Widom 601 DNA, P04908;P06899;P68431;P62805
Assay: electrophoretic mobility shift assay
Conditions: non-denaturing 4% polyacrylamide gel, SYBR Gold staining, n = 3, read off a plot

| Substance | response (0.4 µM p300(BRPHΔAILZ), parent: est. 48) [%] | response (0.8 µM p300(BRPHΔAILZ), parent: est. 71) [%] | response (1.2 µM p300(BRPHΔAILZ), parent: est. 82) [%] | response (0.4 µM p300(BRPHΔAILZ), parent: est. 41) [%] | response (0.8 µM p300(BRPHΔAILZ), parent: est. 62) [%] | response (1.2 µM p300(BRPHΔAILZ), parent: est. 75) [%] |
| --- | --- | --- | --- | --- | --- | --- |
| p300(BRPH_(ΔAIL)Z), catalytic core of human p300 (aa 1035-1720, Y1467F, autoinhibition loop replaced by a linker) (from UniProt Q09472) K1456A; K1459A; K1461A; R1462A | 2.5 | 6 | 8.5 |  |  |  |
| p300(BRPH_(ΔAIL)Z), catalytic core of human p300 (aa 1035-1720, Y1467F, autoinhibition loop replaced by a linker) (from UniProt Q09472) R1137A |  |  |  | 3.3 | 8 | 13 |
